Experimental data: patent US20260055202A1 (TEXAS A AND M UNIVERSITY SYSTEM, published 2026)

T1: human CD20 on Raji B lymphoma cells (human, UniProt P11836 1-297)
T1 construct: whole, on cells; also called hCD20
T1 sequence (looked up): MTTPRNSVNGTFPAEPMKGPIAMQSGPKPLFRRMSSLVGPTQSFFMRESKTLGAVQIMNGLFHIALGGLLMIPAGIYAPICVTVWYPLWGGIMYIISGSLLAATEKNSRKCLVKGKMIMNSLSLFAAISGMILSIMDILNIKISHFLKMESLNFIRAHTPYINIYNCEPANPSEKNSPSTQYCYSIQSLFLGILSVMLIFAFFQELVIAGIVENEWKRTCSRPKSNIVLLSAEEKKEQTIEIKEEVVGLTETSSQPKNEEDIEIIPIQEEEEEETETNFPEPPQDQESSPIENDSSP

T2: mouse CD20 on transfected HEK293T cells (mouse, UniProt P19437 1-291)
T2 construct: whole, on cells; Expressed from pCMV5 mCD20 in HEK293T cells; also called mCD20; MS4A1
T2 sequence (looked up): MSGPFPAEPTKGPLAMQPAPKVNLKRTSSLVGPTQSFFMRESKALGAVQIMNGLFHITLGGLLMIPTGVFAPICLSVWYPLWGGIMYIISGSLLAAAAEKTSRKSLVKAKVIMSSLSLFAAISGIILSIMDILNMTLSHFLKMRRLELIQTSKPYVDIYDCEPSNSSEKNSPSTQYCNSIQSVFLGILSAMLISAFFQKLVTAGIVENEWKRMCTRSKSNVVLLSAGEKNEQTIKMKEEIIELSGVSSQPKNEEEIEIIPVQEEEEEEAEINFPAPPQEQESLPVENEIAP

B1: AC1 (chicken-derived anti-hCD20 mAb, chicken-human chimeric) (antibody, human IgG1, V domains shown)
VH: AVTLDESGGGLQTPGGGLSLVCKASGFDFSSYAMVWVRQAPGKGLEYVGEITNYAAGSGTWYGAAVKGRATISRDNGQSTVRLQLNNLRAEDTATYYCAKGPISGSIGYLSSIDAWGHGTEVIVSS
VL: ALTQPSSVSANPGETVKITCSGGSSRYGYGWYQQKSPGSAPVTVIYWNDKRPSDIPSRFSGSKSGSTGTLTITGVRAEDEAVYYCGNYDNNDPAFGAGTTLTVL
modifications: Atto 488 NHS-ester label on lysines in the direct immunofluorescence and mCD20 assays (positions not defined)
notes: Chicken VH fused to human CH1 and CH2-CH3 of human IgG1; chicken VL fused to human kappa constant domain; made in Expi293F cells; also called chAC1
B2: ACR8 (chicken-derived anti-hCD20 mAb, chicken-human chimeric) (antibody, human IgG1, V domains shown)
VH: AVTLDESGGGLQTPGGALSLVCKASGFSFDRHGMFWVRQAPGKGLEWVAGIRSTGSYPKYGPAVKGRATISRDNGQSTVRLQLNNLRAEDTARYFCVRNVYIGDYDGDSIDAWGHGTEVIVSS
VL: ALTQPSSVSANLGGTVEITCSGSSSGYGSYYGWYQQKSPGSAPVTVIYENTNRPSNIPSRFSGSESGSTATLTITGVQAEDEAVYFCGSADDSGNSAIFGAGTTLTVL
modifications: Atto 488 NHS-ester label on lysines in the direct immunofluorescence and mCD20 assays (positions not defined)
notes: Chicken VH fused to human CH1 and CH2-CH3 of human IgG1; chicken VL fused to human kappa constant domain; made in Expi293F cells; also called chACR8
B3: ACR7 (chicken-derived anti-hCD20 mAb, chicken-human chimeric) (antibody, human IgG1, V domains shown)
VH: AVTLDESGGGLQTPGGALSLVCKASGFTFNSNGMGWVRQAPGKGLEWVAGIHSSGRYTYYGTAVKGRATISRDNGQSTVRLQLNDLRAEDTATYYCAKNADSAYGYWYAGSIDAWGHGTEVIVSS
VL: ALTQPSSVSANLGGTVEITCSGGYSSYGYSWHQQKSPASAPVTLIYNNNNRPSDIPSRFSGSASGSTATLTITGVQAEDEAVYYCAFTDYSSLAGVFGAGTTLTVL
modifications: Atto 488 NHS-ester label on lysines in the direct immunofluorescence and mCD20 assays (positions not defined)
notes: Chicken VH fused to human CH1 and CH2-CH3 of human IgG1; chicken VL fused to human kappa constant domain; made in Expi293F cells; also called chACR7
B4: AC11 (chicken-derived anti-hCD20 mAb, chicken-human chimeric) (antibody, human IgG1, V domains shown)
VH: AVTLDESGGGLQTPGGALSLVCKASGFDFSSSYINWVRQAPGKGLEYVAQINKDGGGSWYAPVVKGRATISRDNGQSTVRLQLSNLRAEDTGIYFCAKNADSGCVGVGGCIDTWGHGTEVIVSS
VL: ALTQPSSVSANPGETVKITCSGGSYYYGGNYYYGWYQQKSPGSAPVTLIYNNNKRPSDIPSRFSGSTSGSTGTLTITGVQADDEAVYYCGGYDSSYVAIFGAGTTLTVL
modifications: Atto 488 NHS-ester label on lysines in the direct immunofluorescence and mCD20 assays (positions not defined)
notes: Chicken VH fused to human CH1 and CH2-CH3 of human IgG1; chicken VL fused to human kappa constant domain; made in Expi293F cells; also called chAC11; parental AC11
B5: hAC11-10 (humanized variant of mAb AC11) (antibody, V domains shown)
VH: EVQLVESGGGLVQPGGSLRLSCKASGFTFSSSYINWVRQAPGKGLEYVAQINKDGGGSWYAPVVKGRFTISRDNAKNTVYLQMNSLRAEDTAVYYCAKNADSGCVGVGGCIDTWGQGTTVTVSS
VL: SYELTQPSSVSVSPGQTVRITCSGGSYYYGGNYYYGWYQQKPGQAPVTVIYNNNKRPSGIPERFSGSNSGNTGTLTISGVQAEDEADYYCGGYDSSYVAIFGGGTKLTVL
notes: Humanized variable regions; constant regions not restated for this variant (the parental format is human IgG1 with a human kappa constant domain)
B6: Rituximab (antibody, V domains shown)
VH: QVQLQQPGAELVKPGASVKMSCKASGYTFTSYNMHWVKQTPGRGLEWIGAIYPGNGDTSYNQKFKGKATLTADKSSSTAYMQLSSLTSEDSAVYYCARSTYYGGDWYFNVWGAGTTVTVSA
VL: QIVLSQSPAILSASPGEKVTMTCRASSSVSYIHWFQQKPGSSPKPWIYATSNLASGVPVRFSGSGSGTSYSLTISRVEAEDAATYYCQQWTSNPPTFGGGTKLEIK

Key:
[1] = target: T1, human CD20 on Raji B lymphoma cells; assay: flow cytometry on Raji cells, indirect immunofluorescence (Atto 488-labeled anti-human Fc secondary Ab), MFI against concentration, 5PL fit
Method: The median fluorescence intensity (MFI) of Ab-coated cells was determined using FlowJo software. Data for the lowest mAb concentration derives from cells incubated with just buffer (no Ab). […] Values are the mean±SD of duplicate measurements.
(§1) Binding of anti-hCD20 mAbs to Raji cells: Anti-hCD20 Abs diluted in DPBS/1% bovine serum albumin (BSA) were incubated with 6×10⁵ Raji cells in V-bottom 96-well plates at 4° C. for 1 hour in a final volume of […]. […] Binding of mAbs to live single cells gated by light scatter characteristics was measured using a BD LSRFortessa X-20 flow cytometer. The binding of bacteriophage displaying the Fab portions of the chicken Abs to hCD20-transfected Chinese hamster ovary (CHO) cells was also measured (FIG. 4).

[2] = target: T1, human CD20 on Raji B lymphoma cells; assay: flow cytometry on Raji cells, indirect immunofluorescence (Atto 488-labeled anti-human Fc secondary Ab), median fluorescence intensity
Method: Median fluorescence intensities (MFIs) from histograms calculated using FlowJo software were used to generate the binding curves in FIG. 8. The identity and concentration of the Ab and calculated MFI is shown in the insets of histograms.
as §1

[3] = target: T1, human CD20 on Raji B lymphoma cells; assay: cell-based or functional assay
[4] = target: T1, human CD20 on Raji B lymphoma cells; assay: flow cytometry on Raji cells, direct immunofluorescence with A488-labeled Ab, MFI against concentration, 5PL fit [panel A]
Method: Raji cells were incubated with A488-labeled anti-hCD20 Abs followed by washing and flow cytometric analysis using a BD LSRFortessa X-20 instrument. The median fluorescence intensities (MFIs) of Ab-coated cells were determined using FlowJo software and fitted to an asymmetric sigmoidal 5PL curve using GraphPad Prism. Data are the mean±SD of duplicate measurements and are from one of two independent, representative experiments.

[5] = target: T2, mouse CD20 on transfected HEK293T cells; assay: flow cytometry with Atto 488-labeled Ab on HEK293T cells transfected with pCMV5-mCD20 versus pCMV5 (mock)
Method: The identity of the Abs is indicated at the top. Anti-mCD20: commercially obtained anti-mCD20 Ab (eBioscience/Thermo Fisher). Data are from one of two independent, representative experiments.
Cross-reactivity of anti-hCD20 mAbs with mouse CD20: HEK293T cells in P100 tissue culture dishes were transfected at 70-90% confluency with […] pCMV5 mCD20 expression plasmid or parental pCMV5 (mock transfection) using jetOPTIMUS (Polyplus-transfection) reagent per the manufacturer's recommended protocol at a 1:1 jetOPTIMUS:DNA (L: g) ratio. Two days post transfection, the supernatant on the transfected cells was aspirated and the cells dislodged by vigorous pipetting with DPBS (HyClone). The cells were pelleted by centrifugation and the buffer replaced with 8 mL chilled blocking buffer (DPBS/10% FBS). The cells were blocked with gentle rocking at 4° C. for 30 minutes. […] of the blocked cells were transferred to individual wells of a conical-bottom 96-well plate and the cells were pelleted by centrifugation prior to incubation with […] of […] A488-labeled anti-hCD20 Abs or […] A488-labeled anti-mouse CD20 Ab (eBioscience/Thermo Fisher) at 4° C. with rocking for 1 hour. The Ab-coated cells were washed three times with cold DPBS/1% BSA and resuspended in […] DPBS/1% BSA prior to flow cytometric analysis in the FITC channel using a BD LSRFortessa X-20 cytometer. Histogram plots were generated with Flowing Software v2.5.1 (University of Turku).

[6] = target: T1, human CD20 on Raji B lymphoma cells; assay: flow cytometry on Raji cells (binding/hCD20 receptor occupancy), A488-labeled secondary anti-human IgG Fcγ Ab, MFI against concentration, 5PL fit
Method: The experiment was carried out by detection of bound unlabeled anti-hCD20 Abs using A488-labeled secondary anti-human IgG Fcγ Ab. Median fluorescence values from flow cytometry were obtained using FlowJo software. EC₅₀ values were generated from an asymmetric sigmoidal 5PL fit using GraphPad Prism. Data are from one of two independent, representative experiments. […] All statistical analyses were by unpaired t test.

| Binder | EC50 [1] [µg/mL] | MFI at 16.7 µg/mL [2] | ADCC signaling, ADCC reporter bioassay (FcgRIIIa V158 Jurkat pseudoeffector cells, Raji targets; fold over Rituximab) [3] | target cell lysis, PBMC ADCC bioassay on Raji cells (fold over Rituximab) [3] | EC50 [4] [µg/mL] | binding result [5] | EC50 [6] [µg/mL] |
| --- | --- | --- | --- | --- | --- | --- | --- |
| B1 | 1.8 | 20000 | > 100 fold relative to Rituximab | ~10 fold relative to Rituximab | 2.5 |  |  |
| B2 | 2 | 21000 | > 100 fold relative to Rituximab | ~10 fold relative to Rituximab | 2 | no binding |  |
| B3 | 5.9 | 18000 | > 100 fold relative to Rituximab | ~10 fold relative to Rituximab | 7.3 | no binding |  |
| B4 | 3.2 | 19000 | > 100 fold relative to Rituximab | ~10 fold relative to Rituximab | 5.7 | no binding |  |
| B5 |  |  |  |  |  |  | 3.5 |
| B6 | 4.5 | 14000 |  |  | 5.6 |  | 4.5 |
